Measured values from patent US20260053918A1.

Molecular target: CD19 (UniProt P15391)
Test: cell-based or functional assay

Substance “CD19R:CD28:z(CO) CAR containing the 2 point mutations, L235E and N297Q, in the CH2 portion of the IgG4 spacer (CD19R(EQ)), expressed on CMV/CAR T cells” has a total cell increase after 2 rounds of stimulation with irradiated CD19-expressing NIH3T3 cells of 120 to 150 fold.
